Measurements reported in the domain aggregation screens of Martell et al. (2025).

Assay: soluble fraction after stress (log2 fold change); higher = more stays soluble; pooled small domains, quantitative proteomics
Conditions: stress: pH 4
Method in brief: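 High-throughput quantitative proteomics was run on pooled custom libraries of small protein domains following pH 4 stress. Fold changes are on a log2 scale; higher values mean more of a domain remained soluble. The fold change in soluble amount is taken as a measure of aggregation propensity.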

Row | Sequence | soluble fraction (log2)
1 | HMERFRQVNAGMTRDDIYQLLGKPTEKTPFPLKNEEVWSWRHQADGQTVALFNIHLDPDGRVTTTSQSMDL | -1.32
2 | HMERFVVISKDKYANLREEASTNSKVLAKVDNSYLIYNTNTYNENKDWYSVQIERDGNYYQVGYIHKSQL | -1.82
3 | HMERLKRVTLSLNQSNYSVTEIARRLQAITGIKDITVVEDEQAVYLKVDPATFDLTLAQQAV | -0.653
4 | HMERLLVSKINGMITEAKVSVEDVVKVVASRGHYPEVKSIDEYPDDFLSRWVVPNFKKIVEMINANKEA | 0.239
5 | HMERMTSTEILTRDFLTTNSKIVKKSTIEELSEIIHVSPATIIRTVKKMGYSGFSEYKNELINQ | 0.0482
6 | HMERPEVVAYRLAYASAESLRPALGLVASPSDLEIDERTNTLIVRAVPSVQERVAELVASLDI | -0.889
7 | HMERPKSLRELALEHLRNSIIDGSLKMGQVLSERKISEELGVSKSPVREALAQLRDEGLVSIEPQKGARV | 0.288
8 | HMERPLFVIEDYRRFAGNEVEISLKKGGKKIRGVIAGTPSDAEVTVRTQGGETTVPLGDVKRAHLVYV | 0.0919
9 | HMERRDEINSVVSRYVSAITEGKYDLAEVDETGKLRVQTEGREVLPEALSRGTLEQFYFAFRMAVGSI | -0.779
10 | HMERTQSIEAAREQLGEVTKDNVFETETLGALAILKENEPGEYAKIKADLKGKINMNDLERAVKKAAADQR | -0.0729
11 | HMERYFVLVIYDIVDNKKRLKLSKYLLGYGIRVQKSAFEMMITKEKYNKLIKELPTYIEEGEDSIRLY | -0.292
12 | HMERYLLRDNIPNALHGERLDRVIAIMTGLSRSAVSALIKSNQVLRNGQIAQSISEKVVEGDELEVHLEP | -0.465
13 | HMESDAIAAAIAALPARYREVLLLRYDNGFSYSEISKALDMTEAAVRKTVQRAKEALQRTLQIQEEDT | -0.219
14 | HMESDRVAHVVAPGETLFSISGKYGIGMGELVAANPVLESRPPRTGDTLLIRLPENPLPAETDAETLS | -0.858
15 | HMESIAEIDRMNAKIFMDEFQDSLSIMQKTTNPETFFSRYDLAMERLDNMVELQQKGIKFTSDLSSLKAQ | -0.564
16 | HMESIEGMYKISLLRKQGNAYVIFEDENKEAVEHIFPEKPTALELGTKVIEMFEYKERYDGLI | -0.781
17 | HMESILDDFPGLGEKRKKALLEHFGSISKIKAATVGQLREVDGIGFETAAALREFLDANFPA | 0.0668
18 | HMESIPDELLEAFKQDPAFKQAFYALTAGRQRGYIIHFSQPKQSQTRIGRIEKYKEQIFNGIGLN | -0.125
19 | HMESKPLTPSEIKKLRMDANMTQAGLAEVLGMTVKAVEAWESGRNIPSGAADKILRVMQKHPSVIGMMQS | 0.247
20 | HMESLNDRIKLVFKDSGLTQMDISKRLNIAQSSVSGIISGKANPSKRTLADIADRFDVNLEWLRDGTGPMK | 0.199
21 | HMESLSHRQKSIVDWVQKNGYASIERMAEQFEVSAQTIRRDVIELSERRILQRHHGGASLPAG | -0.17
22 | HMESNDSNIEDDFYEGLKSMRKGDLKMSVVFFTRVIEKKPTFAEAWNRRATVYYMLGKFDKSMFDINETLK | -0.17
23 | HMESPELIHILKEAEWQIWQQIQGLPEKQRIAMTLFAMDDLSYQEIADVMKVSVSAIESLLFRARTQLKKY | -0.71
24 | HMESPLEQLTNRELQTLQMLGKGLSTKQIAAQLNLSVKTVETYRENLKRKLNLDSGSELIRYAIHRSNE | -0.0124
25 | HMESPLNPTDVRRAAMDLLARREHGVEELRLKLKRRFGREEDFETIATEQLQRLVDEDLLSDTRF | -0.948

Row | Sequence | soluble fraction (log2)
26 | HMESRETGLPVVIISDGRILQDNLKRRGLDLSWLDKQLAEHGYPDFRDVFLLTVDEAGGVYFVPRE | -0.145
27 | HMESSNLESQLKKGIVPNLNGLSAKDALFLLENSGFNVKLYGMGSVKKQSLEAGKKYNKGDKITLIL | 0.219
28 | HMESSYKGFILDIETRQFSPTLIQRRGIAINPSGIVETTTEFSFATQEKVLIEDLKLIIDELDLRADY | -2.31
29 | HMESTLNYSQFLSLVNEDRVAEVVIQGKELYVTDVNRSRFKVYAPPDPELIGLLRQKRVIISAKP | 0.203
30 | HMESVDRIYERVRRYADDVGTAKIPMKELDDDGPLGTAVSRIRERRKRGELTEEWEARFETLPGWTWAA | -0.265
31 | HMESWEDSNIANEFKSTIKIAEKRLAEGGDHPELLEKLEALKQAIINENQTEASKLDDQVNDILFDMDD | -0.558
32 | HMETEAGIKAYLSSSMIKGIGPVTAQRIVERFGKRTLYVLDQMPEKLLDISGISEAKLEEILNGYRKS | -0.532
33 | HMETFGEKDLDELIGRNVELITHDGKVREGLVDSVDRYNVSLVRYLDAGEVAMMVRRREVKAVRLK | -1.12
34 | HMETFGLSQRELQILSQLHKGQPLKEFAASLFITESTLKTHLSAIYRKMSVKNRVQAIEKAKQSGL | -0.273
35 | HMETGEDSLRRYFNSLPGSASKREILEDNPTVSQRTTERILQKLQAEGFIEKVGAARATRYRKVKQ | 0.27
36 | HMETGELQQILEDVFSKNIGIVQDKREAAFSILMGMIMAKSRGRADGALVSTLLKKKLTEFLATSDQVR | -0.196
37 | HMETGNEDYRVGKELAYDGNYKAATIYLMKSIKDDPNNPDAFNMLGFSHRKLGNNDEAYIYYNKALEL | -0.722
38 | HMETKKEIIEAINELEEKYRNAIYLTSIEKLSYEETSKILGQSLSNTKNLIHRGKQQLRKILIKK | -0.37
39 | HMETLEDHRKKTRQQLFDALSHLLQTSTFESLTMAKIAEEAGVGRTAVYNHFQDKEALLLAFITYETGQ | -0.815
40 | HMETLETYTSRLRQLEDITNNFKGVDKSFAIQAGREIRVMVVPEQVSDADMILMARDISKAIEAELEYPGQ | -0.315
41 | HMETLGADLRALRKSRGLTLLDMAESLGRSVGWLSQVERDLSDPSISDLREIAELLGVPISMLFRH | -1.33
42 | HMETLKEMDSKGAINASEVNVREGAGTSSSKMYSLSKGASVDVTGIKGDWYRVHTSKGTGYVLAKYVTLVS | ≥ 0.43
43 | HMETLYGQIVNDIMEKIESNAWPVGYVIPTESDFQKQYGVSRATVRNAILKLAHLGYLVRKKGSGTYVTRP | -0.287
44 | HMETPEIPGLTPRQVEIMLLVGKGYSNKEIARFLTISPETVKTHLKEVFLRFGLRNRVEAIDFTRQNGL | -0.358
45 | HMETPLSAADFKIVFGEEYEIGTDANGLPKMGSRINRQLQNRFLTWASVNKRKATMSAYQDWVASDPAAQ | -0.693
46 | HMETQVKVPNVVGMTQSKAIAKLKESKLDYEVQEQKHDGDKGKVVDQSEAEGTYVDRGTKVIIYVSTGE | ≥ 0.43
47 | HMETSIQFIRLEIGHNHPWVNQTLKEIPTIPGTLIAAVLRGDEDQAIIPKGDTLLKEGDSVIIGAKEYQD | -1.61
48 | HMETSLVIQIDGAVNSPGIYQVTPGTRIFEALELAGGVREDAQTEALNLALPVYDGQRISIPSSFA | -1.58
49 | HMETTVSYSGVVTASVLRIRKGPSVSSSVAGTLKKGTGVSIIFEDNGWGKLADGSGWVSLTYIKKNSTP | -0.101
50 | HMETWDQAYETIKQNILNLTYPPGMPLTEAKLAEELGMSRSPVRTALRMLQTDGLIVTDYYKSMTVKEI | -2.07

Row | Sequence | soluble fraction (log2)
51 | HMETWKLYKRAYKKYYARYMKGNMSEADFKAWATQAAADRDAAIEQITPEIDAALKAQIIEQLREKLNR | -0.134
52 | HMEVAAAENYRSKLSSFAKDTISVWQTELLLGTISDDDKASLTEWMAYIKALQVVDTSDPESITWPTEPT | -1.12
53 | HMEVAASEQRDNLWALARRVLSGEQYDVLYLRYVEDFSVAQIADVVGKTQTHVKVLLFRGRNNLGSRLRS | -0.0684
54 | HMEVENAQLLARLTPQEHRVFERVVAGLSNREIGSEMDISIKTVEVHRARVMRKLEANSVAELVRFHIHN | -0.811
55 | HMEVGDTYLGKVTRVSSFGAFIEVLPGKEGLMRQNDAGEGGMPEVGDEVMVRVMEVDHLGRINLSGKLDD | -1.32
56 | HMEVGKRIAEIRKENRMSQEQFGQLFHVTRQTVSNWENAKSYPDLQTLVKISELFEITMDELLK | -0.454
57 | HMEVKVSGHLEAIGGVYHMKLSWIDDAGKRRRKSKSTGLAERGNKKRANDMLIDFMREQEAEIAASGD | ≥ 0.43
58 | HMEVLSKRGSTGTEVINIQKKLKNWGYYTGSVDGIYGKLTEEAVRYFQRTNGLTVDGIAGKNTLAAMGIA | 0.399
59 | HMEVNLEPLIALLRKHRDLDLSGYSKSTLGRRITYFMGLNKISSIDELGRRLAEDDLLFQEFLDKLT | -0.818
60 | HMEVSLEDKMDYLTNYATTHKNFSFRNLLESSSGKIEVIVTFLAILELMKMGRINISQEHIFDDIIIESRI | -1.8
61 | HMEVSTRQVRAALRDIIEAEDKKRPLSDEAITARLREQGLPVARRTVAKYREQMGILAARLRK | 0.0717
62 | HMEVVRVEPGATVRDLGEALGVPPTRIIQILMGLGEMKTVTQTLSTEEIELVAEELGRRVEV | -0.248
63 | HMEWVVVPDVRRQLLPEAQRRVNKARLRLEVAGGWPAEPLLAMVVDQKPGPETRVPLNSIVVVVVRNLP | -0.0893
64 | HMEYELYALKEEVLKRLTREDRELLILLFEERRTIHAVAQRLGLSDSAVYKRRTQLVNKVKVIASMLM | -0.592
65 | HMEYKNYYDSPVGRLELLSDGVSLTAVLFENQQGDGTREENTSLAIFKEATQWLDAYFKGDNPEITIPL | 0.33
66 | HMEYKTGIINTNKVRVRNAADADATVIFAINKDIKVKILAEENGFYKIGVSVKNRGNGEDLIGFVKKELIT | 0.3
67 | HMEYQTVEKSEAEQIIQELEKAERLALKVYSKNDIITGISVSDGKSYYFSAELVPMLKNIIENPEIKIL | -1.14
68 | HMEYRVRDKMTDILELLTEHRGRIALRDAFPTGTREELLAAFLALLELTKMQTVIVYQDRLYDDIQIVMK | 0.22
69 | HMEYSTLEIYSQTKKDLIEKSPHLNKVVYDKDDGYIYLLSFEKEDDLTSFKSNIENDSDIKRIEANV | -0.91
70 | HMEYTVNRLAQISGVSKRTLRYYDEIGLLRPERVNPNGYRIYGQMQVDLLQQILFYRELGLPLEEIREII | -0.639
71 | HMFAATGVVNAPSGLVLRETASKGGNPLATVPDKAQVEIVEEDGEWYKVKVNEQTGYLFAEFVNKTE | -0.13
72 | HMFAQDQLFKKDNSKVDVKILEINTTEIKYKLFTYQDGPTITVAKKDVALIIYQNGVHEVIT | -1.17
73 | HMFAVPAPEVDDILSEKKVDVLLLGPQVRYLLEQFTEKLKDKNIPIGVIPMVDYGMMNGSKVLALAEELIG | -0.288
74 | HMFDFGNHLRMLREKHGISQEELGRRVGRAGSVISNYENNIKIPTLDVLTTMARIYDVSLDYLVG | -1.06
75 | HMFDFNNLSSLSDVELSVYRFVVNNPEKVAYMRVRDIAQKTHVANSSVMRFVHKIGFASFPEFKAYLKNIN | -0.0916
